This data set has as its system CC(=O)Oc1ccc([N+](=O)[O-])cc1. As to the kind of experiment: purified protein. Format: biochemical, uncultured bacterium pDL136. Conditions: 50 mM Tris pH 8.0, 30°C, ~2 nM enzyme, value in parentheses is standard error.
With “EstDL136 (wild-type full-length) (uncultured bacterium pDL136)”, the Km is 0.14 (0.016) mM; the turnover number (kcat) – broadly, the maximal rate divided by the concentration of active sites – was 622 s⁻¹; the kcat/Km (usually the turnover number divided by the Michaelis constant) was found to be 4.4e+06 M⁻¹ s⁻¹.
On the same counts, the results for “EstDL136 (wild-type full-length) (uncultured bacterium pDL136; L206A)” are 0.40 (0.030) mM, 547 s⁻¹ and 1.4e+06 M⁻¹ s⁻¹.
On the same counts, the results for “EstDL136 (wild-type full-length) (uncultured bacterium pDL136; F214A)” are 0.55 (0.051) mM, 641 s⁻¹ and 1.2e+06 M⁻¹ s⁻¹.
